Drawing on paper PMC10288612, this text covers Kd for four molecules.

This data set has as its target HER-2/neu extracellular domain (ErbB2) (human, UniProt P04626 23-652). The experiment in a line: electrochemical bead sandwich assay.
What is called Kd is a measure of binding affinity in units of concentration. Read a low Kd as higher affinity. GCAGCGGTGTGGGGGCAGCGGTGTGGGGGCAGCGGTGTGGGGTTTTT (ssDNA) [trimer] had a Kd of 0.0261 pM. For TTTTTTGCAGCGGTGTGGGGGCAGCGGTGTGGGG (ssDNA) [dimer] the value was 0.0374 pM; for GCAGCGGTGTGGGG (ssDNA) [monomer], 0.121 pM.

On to TTTTTTTTTGCAGCGGTGTGGGG (ssDNA) [monomer-T (monomer-9T)], for which the Kd is 0.085 pM.
